In PMC12574954 (2025):

B1: recombinant Fab 8G5F11 (Fab, V domains shown)
VH: DVQLQESGPDLVKPSQSLSLTCTVTGYSITSGYSWHWNRQFPGNKLEWMGYIHYSGLTNYNPSLKSRISITRHTSKNQFFLQLNSVTTEDTATYYCVRGGYDGRDYYAMDFWGQGTSVTVSS
VL: DIVMTQSHKFMSTSVGDRVSITCKASQDVDNDVAWYQQKPGQSPKLLIYWASTRHTGVPDRFTGSGSGTDFTLTISDVQSEDLSDYFCQQYSSYPFTFGGGTRLEIK
B2: monoclonal antibody 8G5F11 (antibody, V domains shown)
VH: B1 VH
VL: B1 VL

Target: T1, thermolysin-generated VSV Gect (aa residues 1-422) (Vesicular stomatitis virus, UniProt P0C2X0 17-438)
T1 chain: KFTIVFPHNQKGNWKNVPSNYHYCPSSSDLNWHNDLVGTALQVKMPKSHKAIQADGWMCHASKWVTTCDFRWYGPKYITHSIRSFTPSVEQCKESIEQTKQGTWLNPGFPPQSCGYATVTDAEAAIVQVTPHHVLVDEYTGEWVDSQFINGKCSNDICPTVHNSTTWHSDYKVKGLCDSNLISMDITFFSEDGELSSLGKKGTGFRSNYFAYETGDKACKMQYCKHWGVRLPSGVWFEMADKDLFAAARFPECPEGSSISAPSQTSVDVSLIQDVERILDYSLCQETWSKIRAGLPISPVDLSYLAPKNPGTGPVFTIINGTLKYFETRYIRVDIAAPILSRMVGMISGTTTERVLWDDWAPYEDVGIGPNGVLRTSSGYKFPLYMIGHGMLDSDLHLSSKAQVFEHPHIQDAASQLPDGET
Experiment: BLI

Row | Binder | Kd
1 | B1 | 0.72 nM
2 | B2 | 1.01 nM
